{"source": "patent US20130316941A1", "about": "(Boehringer Ingelheim, published 2013)", "key": {"[1]": {"biological_target": "human glucagon receptor (Glucagon-R) (human, UniProt P47871 26-477)", "sequence (P47871 26-477)": "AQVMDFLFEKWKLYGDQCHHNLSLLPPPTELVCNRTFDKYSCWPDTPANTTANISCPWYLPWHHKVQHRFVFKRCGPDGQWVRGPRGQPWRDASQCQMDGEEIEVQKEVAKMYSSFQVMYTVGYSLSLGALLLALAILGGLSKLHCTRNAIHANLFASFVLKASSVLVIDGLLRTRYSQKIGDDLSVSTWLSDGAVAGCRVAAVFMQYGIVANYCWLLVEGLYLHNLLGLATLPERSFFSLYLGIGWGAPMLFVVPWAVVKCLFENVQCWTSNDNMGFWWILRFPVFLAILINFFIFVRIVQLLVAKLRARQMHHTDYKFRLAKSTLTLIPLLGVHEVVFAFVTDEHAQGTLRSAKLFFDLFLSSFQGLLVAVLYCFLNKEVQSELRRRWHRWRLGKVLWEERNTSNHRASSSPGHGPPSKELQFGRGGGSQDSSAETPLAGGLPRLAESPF", "test": "cell-based or functional assay"}, "[2]": {"biological_target": "human glucagon-like peptide 1 receptor (GLP-1R) (human, UniProt P43220 24-463)", "test": "cell-based or functional assay"}}, "data": [{"binder": "HXHGTFTSDYSRYLDEKRARDFIEWLLSA (HELM PEPTIDE1{H.[dS].H.G.T.F.T.S.D.Y.S.R.Y.L.D.E.K.R.A.R.D.F.I.E.W.L.L.S.A.[am]}|PEPTIDE2{[CCCCCCCCCCCCCCCC(=O)[*:2]].[gGlu]}$PEPTIDE1,PEPTIDE2,17:R3-2:R2$$$V2.0; SMILES CCCCCCCCCCCCCCCC(=O)N[C@@H](CCC(=O)NCCCC[C@H](NC(=O)[C@H](CCC(=O)O)NC(=O)[C@H](CC(=O)O)NC(=O)[C@H](CC(C)C)NC(=O)[C@H](Cc1ccc(O)cc1)NC(=O)[C@H](CCCNC(=N)N)NC(=O)[C@H](CO)NC(=O)[C@H](Cc1ccc(O)cc1)NC(=O)[C@H](CC(=O)O)NC(=O)[C@H](CO)NC(=O)[C@@H](NC(=O)[C@H](Cc1ccccc1)NC(=O)[C@@H](NC(=O)CNC(=O)[C@H](Cc1c[nH]cn1)NC(=O)[C@@H](CO)NC(=O)[C@@H](N)Cc1c[nH]cn1)[C@@H](C)O)[C@@H](C)O)C(=O)N[C@@H](CCCNC(=N)N)C(=O)N[C@@H](C)C(=O)N[C@@H](CCCNC(=N)N)C(=O)N[C@@H](CC(=O)O)C(=O)N[C@@H](Cc1ccccc1)C(=O)N[C@H](C(=O)N[C@@H](CCC(=O)O)C(=O)N[C@@H](Cc1c[nH]c2ccccc12)C(=O)N[C@@H](CC(C)C)C(=O)N[C@@H](CC(C)C)C(=O)N[C@@H](CO)C(=O)N[C@@H](C)C(N)=O)[C@@H](C)CC)C(=O)O)", "note": "[H-H-DSer-HGTFTSDYSRYLDE-K(Hexadecanoyl-isoGlu)-RARDFIEWLLSA-NH2 [Compound 11]]", "values": [{"measurement": "EC50 values for cAMP generation in HEK293 cells expressing Glucagon receptor", "setting": "[1]", "result": 0.09, "unit": "nM"}, {"measurement": "EC50 values for cAMP generation in HEK293 cells expressing GLP-1 receptor", "setting": "[2]", "result": 0.15, "unit": "nM"}]}, {"binder": "HXHGTFTSDYSRYLDEKRARDFIEWLLSA (HELM PEPTIDE1{H.[Aib].H.G.T.F.T.S.D.Y.S.R.Y.L.D.E.K.R.A.R.D.F.I.E.W.L.L.S.A.[am]}|PEPTIDE2{[CCCCCCCCCCCCCCCC(=O)[*:2]].[gGlu]}$PEPTIDE1,PEPTIDE2,17:R3-2:R2$$$V2.0; SMILES CCCCCCCCCCCCCCCC(=O)N[C@@H](CCC(=O)NCCCC[C@H](NC(=O)[C@H](CCC(=O)O)NC(=O)[C@H](CC(=O)O)NC(=O)[C@H](CC(C)C)NC(=O)[C@H](Cc1ccc(O)cc1)NC(=O)[C@H](CCCNC(=N)N)NC(=O)[C@H](CO)NC(=O)[C@H](Cc1ccc(O)cc1)NC(=O)[C@H](CC(=O)O)NC(=O)[C@H](CO)NC(=O)[C@@H](NC(=O)[C@H](Cc1ccccc1)NC(=O)[C@@H](NC(=O)CNC(=O)[C@H](Cc1c[nH]cn1)NC(=O)C(C)(C)NC(=O)[C@@H](N)Cc1c[nH]cn1)[C@@H](C)O)[C@@H](C)O)C(=O)N[C@@H](CCCNC(=N)N)C(=O)N[C@@H](C)C(=O)N[C@@H](CCCNC(=N)N)C(=O)N[C@@H](CC(=O)O)C(=O)N[C@@H](Cc1ccccc1)C(=O)N[C@H](C(=O)N[C@@H](CCC(=O)O)C(=O)N[C@@H](Cc1c[nH]c2ccccc12)C(=O)N[C@@H](CC(C)C)C(=O)N[C@@H](CC(C)C)C(=O)N[C@@H](CO)C(=O)N[C@@H](C)C(N)=O)[C@@H](C)CC)C(=O)O)", "note": "[H-H-Aib-HGTFTSDYSRYLDE-K(Hexadecanoyl-isoGlu)-RARDFIEWLLSA-NH2 [Compound 12]]", "values": [{"measurement": "EC50 values for cAMP generation in HEK293 cells expressing Glucagon receptor", "setting": "[1]", "result": 0.14, "unit": "nM"}, {"measurement": "EC50 values for cAMP generation in HEK293 cells expressing GLP-1 receptor", "setting": "[2]", "result": 0.06, "unit": "nM"}]}, {"binder": "HXPGTFTSDYSRYLDEKRARDFIEWLLSA (HELM PEPTIDE1{H.[Aib].P.G.T.F.T.S.D.Y.S.R.Y.L.D.E.K.R.A.R.D.F.I.E.W.L.L.S.A.[am]}|PEPTIDE2{[CCCCCCCCCCCCCCCC(=O)[*:2]].[gGlu]}$PEPTIDE1,PEPTIDE2,17:R3-2:R2$$$V2.0; SMILES CCCCCCCCCCCCCCCC(=O)N[C@@H](CCC(=O)NCCCC[C@H](NC(=O)[C@H](CCC(=O)O)NC(=O)[C@H](CC(=O)O)NC(=O)[C@H](CC(C)C)NC(=O)[C@H](Cc1ccc(O)cc1)NC(=O)[C@H](CCCNC(=N)N)NC(=O)[C@H](CO)NC(=O)[C@H](Cc1ccc(O)cc1)NC(=O)[C@H](CC(=O)O)NC(=O)[C@H](CO)NC(=O)[C@@H](NC(=O)[C@H](Cc1ccccc1)NC(=O)[C@@H](NC(=O)CNC(=O)[C@@H]1CCCN1C(=O)C(C)(C)NC(=O)[C@@H](N)Cc1c[nH]cn1)[C@@H](C)O)[C@@H](C)O)C(=O)N[C@@H](CCCNC(=N)N)C(=O)N[C@@H](C)C(=O)N[C@@H](CCCNC(=N)N)C(=O)N[C@@H](CC(=O)O)C(=O)N[C@@H](Cc1ccccc1)C(=O)N[C@H](C(=O)N[C@@H](CCC(=O)O)C(=O)N[C@@H](Cc1c[nH]c2ccccc12)C(=O)N[C@@H](CC(C)C)C(=O)N[C@@H](CC(C)C)C(=O)N[C@@H](CO)C(=O)N[C@@H](C)C(N)=O)[C@@H](C)CC)C(=O)O)", "note": "[H-H-Aib-PGTFTSDYSRYLDE-K(Hexadecanoyl-isoGlu)-RARDFIEWLLSA-NH2 [Compound 15]]", "values": [{"measurement": "EC50 values for cAMP generation in HEK293 cells expressing Glucagon receptor", "setting": "[1]", "result": 0.42, "unit": "nM"}, {"measurement": "EC50 values for cAMP generation in HEK293 cells expressing GLP-1 receptor", "setting": "[2]", "result": 0.06, "unit": "nM"}]}, {"binder": "HSHGTFTSDYSRYLDEKRARDFIEWLLSA (HELM PEPTIDE1{H.S.H.G.T.F.T.S.D.Y.S.R.Y.L.D.E.K.R.A.R.D.F.I.E.W.L.L.S.A.[am]}|PEPTIDE2{[CCCCCCCCCCCCCCCC(=O)[*:2]].[gGlu]}$PEPTIDE1,PEPTIDE2,17:R3-2:R2$$$V2.0; SMILES CCCCCCCCCCCCCCCC(=O)N[C@@H](CCC(=O)NCCCC[C@H](NC(=O)[C@H](CCC(=O)O)NC(=O)[C@H](CC(=O)O)NC(=O)[C@H](CC(C)C)NC(=O)[C@H](Cc1ccc(O)cc1)NC(=O)[C@H](CCCNC(=N)N)NC(=O)[C@H](CO)NC(=O)[C@H](Cc1ccc(O)cc1)NC(=O)[C@H](CC(=O)O)NC(=O)[C@H](CO)NC(=O)[C@@H](NC(=O)[C@H](Cc1ccccc1)NC(=O)[C@@H](NC(=O)CNC(=O)[C@H](Cc1c[nH]cn1)NC(=O)[C@H](CO)NC(=O)[C@@H](N)Cc1c[nH]cn1)[C@@H](C)O)[C@@H](C)O)C(=O)N[C@@H](CCCNC(=N)N)C(=O)N[C@@H](C)C(=O)N[C@@H](CCCNC(=N)N)C(=O)N[C@@H](CC(=O)O)C(=O)N[C@@H](Cc1ccccc1)C(=O)N[C@H](C(=O)N[C@@H](CCC(=O)O)C(=O)N[C@@H](Cc1c[nH]c2ccccc12)C(=O)N[C@@H](CC(C)C)C(=O)N[C@@H](CC(C)C)C(=O)N[C@@H](CO)C(=O)N[C@@H](C)C(N)=O)[C@@H](C)CC)C(=O)O)", "note": "[H-HSHGTFTSDYSRYLDE-K(Hexadecanoyl-isoGlu)-RARDFIEWLLSA-NH2 [Compound 10]]", "values": [{"measurement": "EC50 values for cAMP generation in HEK293 cells expressing Glucagon receptor", "setting": "[1]", "result": 0.06, "unit": "nM"}, {"measurement": "EC50 values for cAMP generation in HEK293 cells expressing GLP-1 receptor", "setting": "[2]", "result": 0.47, "unit": "nM"}]}, {"binder": "HXPGTFTSDYSRYLDEKRARDFIEWLLSA (HELM PEPTIDE1{H.[dS].P.G.T.F.T.S.D.Y.S.R.Y.L.D.E.K.R.A.R.D.F.I.E.W.L.L.S.A.[am]}|PEPTIDE2{[CCCCCCCCCCCCCCCC(=O)[*:2]].[gGlu]}$PEPTIDE1,PEPTIDE2,17:R3-2:R2$$$V2.0; SMILES CCCCCCCCCCCCCCCC(=O)N[C@@H](CCC(=O)NCCCC[C@H](NC(=O)[C@H](CCC(=O)O)NC(=O)[C@H](CC(=O)O)NC(=O)[C@H](CC(C)C)NC(=O)[C@H](Cc1ccc(O)cc1)NC(=O)[C@H](CCCNC(=N)N)NC(=O)[C@H](CO)NC(=O)[C@H](Cc1ccc(O)cc1)NC(=O)[C@H](CC(=O)O)NC(=O)[C@H](CO)NC(=O)[C@@H](NC(=O)[C@H](Cc1ccccc1)NC(=O)[C@@H](NC(=O)CNC(=O)[C@@H]1CCCN1C(=O)[C@@H](CO)NC(=O)[C@@H](N)Cc1c[nH]cn1)[C@@H](C)O)[C@@H](C)O)C(=O)N[C@@H](CCCNC(=N)N)C(=O)N[C@@H](C)C(=O)N[C@@H](CCCNC(=N)N)C(=O)N[C@@H](CC(=O)O)C(=O)N[C@@H](Cc1ccccc1)C(=O)N[C@H](C(=O)N[C@@H](CCC(=O)O)C(=O)N[C@@H](Cc1c[nH]c2ccccc12)C(=O)N[C@@H](CC(C)C)C(=O)N[C@@H](CC(C)C)C(=O)N[C@@H](CO)C(=O)N[C@@H](C)C(N)=O)[C@@H](C)CC)C(=O)O)", "note": "[H-H-DSer-PGTFTSDYSRYLDE-K(Hexadecanoyl-isoGlu)-RARDFIEWLLSA-NH2 [Compound 14]]", "values": [{"measurement": "EC50 values for cAMP generation in HEK293 cells expressing Glucagon receptor", "setting": "[1]", "result": 0.19, "unit": "nM"}, {"measurement": "EC50 values for cAMP generation in HEK293 cells expressing GLP-1 receptor", "setting": "[2]", "result": 0.12, "unit": "nM"}]}]}
